The text below walks through data of article doi:10.1101/839027v1.

The labels stand for the following.
B1: β-glucosidase B (BglB) (Paenibacillus polymyxa) (protein)
chain: MSENTFIFPATFMWGTSTSSYQIEGGTDEGGRTPSIWDTFCQIPGKVIGGDCGDVACDHFHHFKEDVQLMKQLGFLHYRFSVAWPRIMPAAGIINEEGLLFYEHLLDEIELAGLIPMLTLYHWDLPQWIEDEGGWTQRETIQHFKTYASVIMDRFGERINWWNTINEPYCASILGYGTGEHAPGHENWREAFTAAHHILMCHGIASNLHKEKGLTGKIGITLNMEHVDAASERPEDVAAAIRRDGFINRWFAEPLFNGKYPEDMVEWYGTYLNGLDFVQPGDMELIQQPGDFLGINYYTRSIIRSTNDASLLQVEQVHMEEPVTDMGWEIHPESFYKLLTRIEKDFSKGLPILITENGAAMRDELVNGQIEDTGRHGYIEEHLKACHRFIEEGGQLKGYFVWSFLDNFEWAWGYSKRFGIVHINYETQERTPKQSALWFKQMMAKNGF
B2: β-glucosidase B (BglB) (Paenibacillus polymyxa; K337D) (protein)
chain: MSENTFIFPATFMWGTSTSSYQIEGGTDEGGRTPSIWDTFCQIPGKVIGGDCGDVACDHFHHFKEDVQLMKQLGFLHYRFSVAWPRIMPAAGIINEEGLLFYEHLLDEIELAGLIPMLTLYHWDLPQWIEDEGGWTQRETIQHFKTYASVIMDRFGERINWWNTINEPYCASILGYGTGEHAPGHENWREAFTAAHHILMCHGIASNLHKEKGLTGKIGITLNMEHVDAASERPEDVAAAIRRDGFINRWFAEPLFNGKYPEDMVEWYGTYLNGLDFVQPGDMELIQQPGDFLGINYYTRSIIRSTNDASLLQVEQVHMEEPVTDMGWEIHPESFYDLLTRIEKDFSKGLPILITENGAAMRDELVNGQIEDTGRHGYIEEHLKACHRFIEEGGQLKGYFVWSFLDNFEWAWGYSKRFGIVHINYETQERTPKQSALWFKQMMAKNGF
B3: β-glucosidase B (BglB) (Paenibacillus polymyxa; T431I) (protein)
chain: MSENTFIFPATFMWGTSTSSYQIEGGTDEGGRTPSIWDTFCQIPGKVIGGDCGDVACDHFHHFKEDVQLMKQLGFLHYRFSVAWPRIMPAAGIINEEGLLFYEHLLDEIELAGLIPMLTLYHWDLPQWIEDEGGWTQRETIQHFKTYASVIMDRFGERINWWNTINEPYCASILGYGTGEHAPGHENWREAFTAAHHILMCHGIASNLHKEKGLTGKIGITLNMEHVDAASERPEDVAAAIRRDGFINRWFAEPLFNGKYPEDMVEWYGTYLNGLDFVQPGDMELIQQPGDFLGINYYTRSIIRSTNDASLLQVEQVHMEEPVTDMGWEIHPESFYKLLTRIEKDFSKGLPILITENGAAMRDELVNGQIEDTGRHGYIEEHLKACHRFIEEGGQLKGYFVWSFLDNFEWAWGYSKRFGIVHINYETQERIPKQSALWFKQMMAKNGF
B4: β-glucosidase B (BglB) (Paenibacillus polymyxa; M319C) (protein)
chain: MSENTFIFPATFMWGTSTSSYQIEGGTDEGGRTPSIWDTFCQIPGKVIGGDCGDVACDHFHHFKEDVQLMKQLGFLHYRFSVAWPRIMPAAGIINEEGLLFYEHLLDEIELAGLIPMLTLYHWDLPQWIEDEGGWTQRETIQHFKTYASVIMDRFGERINWWNTINEPYCASILGYGTGEHAPGHENWREAFTAAHHILMCHGIASNLHKEKGLTGKIGITLNMEHVDAASERPEDVAAAIRRDGFINRWFAEPLFNGKYPEDMVEWYGTYLNGLDFVQPGDMELIQQPGDFLGINYYTRSIIRSTNDASLLQVEQVHCEEPVTDMGWEIHPESFYKLLTRIEKDFSKGLPILITENGAAMRDELVNGQIEDTGRHGYIEEHLKACHRFIEEGGQLKGYFVWSFLDNFEWAWGYSKRFGIVHINYETQERTPKQSALWFKQMMAKNGF

Substrate in the data set: O=[N+]([O-])c1ccc(O[C@@H]2O[C@H](CO)[C@@H](O)[C@H](O)[C@H]2O)cc1
In words: purified protein.
Consider B1, for which the Michaelis-Menten constant (Km) (as a rule, the concentration of substrate that gives half-maximal velocity) is 6.5 ± 0.2 mM; the turnover number (kcat) – broadly, the number of substrate molecules converted per active site and unit of time at saturation – turned out to be 17.83 ± 0.167 s⁻¹.
For B2 the same measures were 4.3 ± 0.1 mM and 13.2 ± 0.667 s⁻¹.
With B3, the Km worked out at 5.1 ± 0.1 mM and the kcat worked out at 15.3 ± 0.717 s⁻¹.
As to B4, the Km is on record as 6.0 ± 0.5 mM and the catalytic constant (kcat) came out at 15 ± 0.517 s⁻¹.
